Measurements taken from patent US20260265403A1 (TJ BIOPHARMA SHANGHAI, published 2026).

T1: Human CD24 (human, UniProt P25063 27-59, limits assumed)
T1 chain (looked up): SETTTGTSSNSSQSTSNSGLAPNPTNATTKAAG

T2: human CD24 on cells (human, UniProt P25063 27-59)
T2 construct: whole, on cells; One molecule for all cell lines; the cell line is named under assay or readout; also called cell surface CD24; cell-based CD24
T2 chain (looked up): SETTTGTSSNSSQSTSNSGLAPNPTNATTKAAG


What was measured:
[1] = target: T1, Human CD24; assay: affinity ranking; antibody as ligand, Human CD24 as analyte
[2] = target: T2, human CD24 on cells; assay: flow cytometry (GMFI), SKOV3 cells; EC50 table under the graphs [Cont'd) B]
[3] = target: T1, Human CD24; assay: SPR, second 1:1 binding column set
[4] = target: T1, Human CD24; assay: SPR affinity ranking, 1:1 binding, analyte conc. 19.71 nM
[5] = target: T2, human CD24 on cells; assay: flow cytometry (GMFI), MCF-7 cells; EC50 table under the graphs

apparent Kd (pooled screen) [1] [nM]	apparent koff (pooled screen) [1] [s⁻¹]	apparent kon (pooled screen) [1] [M⁻¹ s⁻¹]	EC50 [2] [µg/mL]	apparent Kd (pooled screen) [3] [nM]	apparent koff (pooled screen) [3] [s⁻¹]	apparent kon (pooled screen) [3] [M⁻¹ s⁻¹]	apparent Kd (pooled screen) [4] [nM]	apparent koff (pooled screen) [4] [s⁻¹]	apparent kon (pooled screen) [4] [M⁻¹ s⁻¹]	EC50 [5] [µg/mL]	Kd [1] [nM]	koff [1] [s⁻¹]	kon [1] [M⁻¹ s⁻¹]	Binder
23.1	0.0158	685000	0.44	25.1	0.0192	763000	172	0.0275	160000	0.39				VH1 + VL3 (4451H) (antibody, V domains shown, also called Antibody No 0; Parental) VH: QVQLVQSGAEVKKPGASVKVSCKASGYDFTGYHMNWVRQAPGQGLEWMGEINPITSDKTFNQKFKSRVTMTRDTSISTAYMELSRLRSDDTAVYYCARRDYGTSLDYWGQGTTVTVSS VL: DIQLTQSPSFLSASVGDRVTITCRASKSISKYLAWYQQKPGKAPKLLIYAGSTLHSGIPSRFRGSGSGTEFTLTISSLQPEDFATYYCQQHNEYPITFGQGTKLEIK
			0.43							0.44	9	0.0115	1.28e+06	VH4 + VL2 (humanized 4451) (antibody, V domains shown, IgG expressed in HEK293) VH: QVQLVQSGAEVKKPGASVKVSCKASGYDFTGYHMNWVKQAPGQGLEWIGEINPITSDKTFNQKFKSRATMTVDRSISTAYMELSRLRSDDTAVYYCARRDYGTSLDYWGQGTTVTVSS VL: DIQLTQSPSFLSASVGDRVTITCRASKSISKYLAWYQQKPGKAPRLLIYAGSTLHSGVPSRFRGSGSGTEFTLTISSLQPEDFATYYCQQHNEYPITFGQGTKLEIK
			0.43							0.45	8.33	0.0128	1.54e+06	VH4 + VL1 (humanized 4451) (antibody, V domains shown, IgG expressed in HEK293) VH: QVQLVQSGAEVKKPGASVKVSCKASGYDFTGYHMNWVKQAPGQGLEWIGEINPITSDKTFNQKFKSRATMTVDRSISTAYMELSRLRSDDTAVYYCARRDYGTSLDYWGQGTTVTVSS VL: DIQLTQSPSFLSASVGDRVTITCRASKSISKYLAWYQQKPGKAPKLLIYAGSTLHSGVPSRFSGSGSGTEFTLTISSLQPEDFATYYCQQHNEYPITFGQGTKLEIK
			0.42							0.42	19.4	0.023	1.18e+06	VH2 + VL3 (humanized 4451) (antibody, V domains shown, IgG expressed in HEK293) VH: QVQLVQSGAEVKKPGASVKVSCKASGYDFTGYHMNWVRQAPGQGLEWIGEINPITSDKTFNQKFKSRVTMTVDTSISTAYMELSRLRSDDTAVYYCARRDYGTSLDYWGQGTTVTVSS VL: DIQLTQSPSFLSASVGDRVTITCRASKSISKYLAWYQQKPGKAPKLLIYAGSTLHSGIPSRFRGSGSGTEFTLTISSLQPEDFATYYCQQHNEYPITFGQGTKLEIK
										0.39	7.94	0.0122	1.53e+06	VH4 + VL4 (humanized 4451) (antibody, V domains shown, IgG expressed in HEK293) VH: QVQLVQSGAEVKKPGASVKVSCKASGYDFTGYHMNWVKQAPGQGLEWIGEINPITSDKTFNQKFKSRATMTVDRSISTAYMELSRLRSDDTAVYYCARRDYGTSLDYWGQGTTVTVSS VL: DIQLTQSPSFLSASVGDRVTIYCRASKSISKYLAWYQQKPGKAPRLLIYAGSTLHSGIPSRFRGSGSGTEFTLTISSLQPEDFATYYCQQHNEYPITFGQGTKLEIK
			0.43							0.4	15	0.0241	1.61e+06	VH1 + VL4 (humanized 4451) (antibody, V domains shown, IgG expressed in HEK293) VH: QVQLVQSGAEVKKPGASVKVSCKASGYDFTGYHMNWVRQAPGQGLEWMGEINPITSDKTFNQKFKSRVTMTRDTSISTAYMELSRLRSDDTAVYYCARRDYGTSLDYWGQGTTVTVSS VL: DIQLTQSPSFLSASVGDRVTIYCRASKSISKYLAWYQQKPGKAPRLLIYAGSTLHSGIPSRFRGSGSGTEFTLTISSLQPEDFATYYCQQHNEYPITFGQGTKLEIK
			0.52							0.52	23.7	0.0262	1.1e+06	VH3 + VL2 (humanized 4451) (antibody, V domains shown, IgG expressed in HEK293) VH: QVQLVQSGAEVKKPGASVKVSCKASGYDFTGYHMNWVRQAPGQGLEWIGEINPITSDKTFNQKFKSRATMTVDTSISTAYMELSRLRSDDTAVYYCARRDYGTSLDYWGQGTTVTVSS VL: DIQLTQSPSFLSASVGDRVTITCRASKSISKYLAWYQQKPGKAPRLLIYAGSTLHSGVPSRFRGSGSGTEFTLTISSLQPEDFATYYCQQHNEYPITFGQGTKLEIK
			0.45							0.45	20.9	0.0264	1.26e+06	VH2 + VL1 (humanized 4451) (antibody, V domains shown, IgG expressed in HEK293) VH: QVQLVQSGAEVKKPGASVKVSCKASGYDFTGYHMNWVRQAPGQGLEWIGEINPITSDKTFNQKFKSRVTMTVDTSISTAYMELSRLRSDDTAVYYCARRDYGTSLDYWGQGTTVTVSS VL: DIQLTQSPSFLSASVGDRVTITCRASKSISKYLAWYQQKPGKAPKLLIYAGSTLHSGVPSRFSGSGSGTEFTLTISSLQPEDFATYYCQQHNEYPITFGQGTKLEIK
			0.38							0.4	13.8	0.0239	1.74e+06	VH1 + VL2 (humanized 4451) (antibody, V domains shown, IgG expressed in HEK293) VH: QVQLVQSGAEVKKPGASVKVSCKASGYDFTGYHMNWVRQAPGQGLEWMGEINPITSDKTFNQKFKSRVTMTRDTSISTAYMELSRLRSDDTAVYYCARRDYGTSLDYWGQGTTVTVSS VL: DIQLTQSPSFLSASVGDRVTITCRASKSISKYLAWYQQKPGKAPRLLIYAGSTLHSGVPSRFRGSGSGTEFTLTISSLQPEDFATYYCQQHNEYPITFGQGTKLEIK
			0.45							0.43	17.6	0.0169	958000	VH1 + VL1 (humanized 4451) (antibody, V domains shown, IgG expressed in HEK293) VH: QVQLVQSGAEVKKPGASVKVSCKASGYDFTGYHMNWVRQAPGQGLEWMGEINPITSDKTFNQKFKSRVTMTRDTSISTAYMELSRLRSDDTAVYYCARRDYGTSLDYWGQGTTVTVSS VL: DIQLTQSPSFLSASVGDRVTITCRASKSISKYLAWYQQKPGKAPKLLIYAGSTLHSGVPSRFSGSGSGTEFTLTISSLQPEDFATYYCQQHNEYPITFGQGTKLEIK
			0.42							0.42	23.8	0.027	1.13e+06	VH3 + VL3 (humanized 4451) (antibody, V domains shown, IgG expressed in HEK293) VH: QVQLVQSGAEVKKPGASVKVSCKASGYDFTGYHMNWVRQAPGQGLEWIGEINPITSDKTFNQKFKSRATMTVDTSISTAYMELSRLRSDDTAVYYCARRDYGTSLDYWGQGTTVTVSS VL: DIQLTQSPSFLSASVGDRVTITCRASKSISKYLAWYQQKPGKAPKLLIYAGSTLHSGIPSRFRGSGSGTEFTLTISSLQPEDFATYYCQQHNEYPITFGQGTKLEIK
			0.44							0.45	8.84	0.0119	1.34e+06	VH4 + VL3 (humanized 4451) (antibody, V domains shown, IgG expressed in HEK293) VH: QVQLVQSGAEVKKPGASVKVSCKASGYDFTGYHMNWVKQAPGQGLEWIGEINPITSDKTFNQKFKSRATMTVDRSISTAYMELSRLRSDDTAVYYCARRDYGTSLDYWGQGTTVTVSS VL: DIQLTQSPSFLSASVGDRVTITCRASKSISKYLAWYQQKPGKAPKLLIYAGSTLHSGIPSRFRGSGSGTEFTLTISSLQPEDFATYYCQQHNEYPITFGQGTKLEIK
										0.75	22	0.0234	1.06e+06	VH2 + VL2 (humanized 4451) (antibody, V domains shown, IgG expressed in HEK293) VH: QVQLVQSGAEVKKPGASVKVSCKASGYDFTGYHMNWVRQAPGQGLEWIGEINPITSDKTFNQKFKSRVTMTVDTSISTAYMELSRLRSDDTAVYYCARRDYGTSLDYWGQGTTVTVSS VL: DIQLTQSPSFLSASVGDRVTITCRASKSISKYLAWYQQKPGKAPRLLIYAGSTLHSGVPSRFRGSGSGTEFTLTISSLQPEDFATYYCQQHNEYPITFGQGTKLEIK
			0.42							0.41	24.8	0.0163	655000	VH3 + VL4 (humanized 4451) (antibody, V domains shown, IgG expressed in HEK293) VH: QVQLVQSGAEVKKPGASVKVSCKASGYDFTGYHMNWVRQAPGQGLEWIGEINPITSDKTFNQKFKSRATMTVDTSISTAYMELSRLRSDDTAVYYCARRDYGTSLDYWGQGTTVTVSS VL: DIQLTQSPSFLSASVGDRVTIYCRASKSISKYLAWYQQKPGKAPRLLIYAGSTLHSGIPSRFRGSGSGTEFTLTISSLQPEDFATYYCQQHNEYPITFGQGTKLEIK
			0.42							0.42	26	0.0294	1.13e+06	VH3 + VL1 (humanized 4451) (antibody, V domains shown, IgG expressed in HEK293) VH: QVQLVQSGAEVKKPGASVKVSCKASGYDFTGYHMNWVRQAPGQGLEWIGEINPITSDKTFNQKFKSRATMTVDTSISTAYMELSRLRSDDTAVYYCARRDYGTSLDYWGQGTTVTVSS VL: DIQLTQSPSFLSASVGDRVTITCRASKSISKYLAWYQQKPGKAPKLLIYAGSTLHSGVPSRFSGSGSGTEFTLTISSLQPEDFATYYCQQHNEYPITFGQGTKLEIK
			0.43							0.4	3.23	0.00937	2.9e+06	VH + VL (4451 parental variable regions, Table 7) (antibody, V domains shown) VH: EVQLQQSGPELVKPGASVKISCKASGYDFTGYHMNWVKQSPEKSLEWIGEINPITSDKTFNQKFKSKATLTVDRSSSTAYMYLKSLTSEDSAVYYCARRDYGTSLDYWGQGTTLTVSS VL: DVQITQSPSYLAASPGETITIYCRASKSISKYLAWYQEKPEKTNRLLIYAGSTLHSGIPSRFRGSGSGKDFTLTVSGLEPEDFAMYYCQQHNEYPITFGAGTKLELK
